Test results published in patent publication US10441663B2, “Methods for treating cancer” (Bicycle Therapeutics Limited, priority 2016, dated 2019).
“Also recorded” adds a separate entry of the source. *1 amine or outer side, *2 acyl side, *3 side chain or, on linkers, in order; H or OH if unused. Where a SMILES comes first, the peptide text is derived from it. Bridges are numbered along the chain shown (N, C = ends). [ ]: non-standard residue; d: D form. The star is where a group is joined. X1 = COc1cc2cc(c1Cl)N(C)C(=O)C[C@H](OC(=O)[C@H](C)N(C)C(=O)CCSSC(C)CCC(=O)*)[C@]1(C)O[C@H]1[C@H](C)[C@@H]1C[C@@](O)(NC(=O)O1)[C@H](OC)/C=C/C=C(\C)C2; 1Nal = N[C@@H](Cc1cccc2ccccc12)C(=O)O; TBMB = c1c(C[*:1])cc(C[*:3])cc1C[*:2]; Tle = CC(C)(C)[C@H](N)C(=O)O; βAla = NCCC(=O)O; Sar = CNCC(=O)O

Test system: EBC-1 xenograft
Test: Efficacy of BT1718 in EBC-1 xenograft model (Example 1)
Format: in vivo, Mus Musculus
Conditions: for Tumor Size (mm^3): Mean ± SEM
Method: The objective of this study was to evaluate the anti-tumor efficacy of BT1718 in EBC-1 xenograft model in female BALB/c nude mice.
The EBC-1 tumor cells were maintained in vitro as a monolayer culture in EMEM medium supplemented with 10% heat inactivated fetal bovine serum at 37° C. in an atmosphere of 5% CO2 in air. The tumor cells will be routinely subcultured twice weekly by trypsin-EDTA treatment. The cells growing in an exponential growth phase will be harvested and counted for tumor inoculation.
Each mouse was inoculated subcutaneously at the right flank with EBC-1 tumor cells (10×10^6) in 0.2 ml of PBS for tumor development. The animals were randomized and treatment was started when the average tumor volume reaches approximately 165 mm^3 for the efficacy study.
All the procedures related to animal handling, care and the treatment in the study were performed according to the guidelines of the Association for Assessment and Accreditation of Laboratory Animal Care (AAALAC). At the time of routine monitoring, the animals were daily checked for any effects of tumor growth and treatments on normal behavior such as mobility, food and water consumption (by looking only), body weight gain/loss (body weights were measured every day), eye/hair matting and any other abnormal effect as stated in the protocol. Death and observed clinical signs were recorded on the basis of the numbers of animals within each subset.
The major endpoint was to see if the tumor growth could be delayed or mice could be cured. Tumor size was measured three times weekly in two dimensions using a caliper, and the volume was expressed in mm^3 using the formula: V=0.5 a×b^2 where a and b are the long and short diameters of the tumor, respectively. The tumor size was then used for calculations of T/C value. The T/C value (in percent) is an indication of antitumor effectiveness; T and C are the mean volumes of the treated and control groups, respectively, on a given day.
TGI was calculated for each group using the formula: TGI (%)=[1−(Ti−T0)/(Vi−V0)]×100; Ti is the average tumor volume of a treatment group on a given day, T0 is the average tumor volume of the treatment group on the day of treatment start, Vi is the average tumor volume of the vehicle control group on the same day with Ti, and V0 is the average tumor volume of the vehicle group on the day of treatment start.
Summary statistics, including mean and the standard error of the mean (SEM), are provided for the tumor volume of each group at each time point.
Statistical analysis of difference in tumor volume among the groups was conducted on the data obtained at the best therapeutic time point after the final dose.
A one-way ANOVA was performed to compare tumor volume among groups, and when a significant F-statistics (a ratio of treatment variance to the error variance) was obtained, comparisons between groups were carried out with Games-Howell test. All data were analyzed using Prism. P<0.05 was considered to be statistically significant.

In the case of COc1cc2cc(c1Cl)N(C)C(=O)C[C@H](OC(=O)[C@H](C)N(C)C(=O)CCSSC(C)CCC(=O)NCCC(=O)N(C)CC(=O)N(C)CC(=O)N(C)CC(=O)N(C)CC(=O)N(C)CC(=O)N(C)CC(=O)N(C)CC(=O)N(C)CC(=O)N(C)CC(=O)N(C)CC(=O)N[C@@H](C)C(=O)N[C@H]1CSCc3cc4cc(c3)CSC[C@H](NC(=O)[C@@H](C)NC(=O)[C@H](Cc3cccc5ccccc35)NC(=O)[C@H](CCC(=O)O)NC(=O)[C@H](CC(N)=O)NC(=O)[C@@H](C)NC1=O)C(=O)N[C@@H](CCC(=O)O)C(=O)N[C@@H](CC(=O)O)C(=O)N[C@@H](Cc1ccccc1)C(=O)N[C@@H](Cc1ccc(O)cc1)C(=O)N[C@@H](CC(=O)O)C(=O)N[C@@H](C(C)(C)C)C(=O)N[C@H](C(N)=O)CSC4)[C@]1(C)O[C@H]1[C@H](C)[C@@H]1C[C@@](O)(NC(=O)O1)[C@H](OC)/C=C/C=C(\C)C2 (some centres unmarked) [BT1718] ({X1-βAla}-[Sar][Sar][Sar][Sar][Sar][Sar][Sar][Sar][Sar][Sar]AC[dA]NE[1Nal][dA]CEDFYD[Tle]C-NH2; linker 12-18-25 via TBMB (inferred)), the tumor growth (3 mg/kg, twice weekly for two weeks) is reported as “significant reduction in tumor growth”, the post-treatment monitoring (9 mg/kg qw group and 4.5 mg/kg biw group) is reported as “re-growth after dosing cessation” and the tumor response (10 mg/kg tiw) is reported as “complete tumor clearance”. For the same compound, the tumor response (10 mg/kg, twice weekly for two weeks) was “complete regressions”, the body weight effect (30 mg/kg qw) was “marked body weight loss; also recorded: severe body weight loss” and the tumor response (30 mg/kg qw, 15 mg/kg biw, 10 mg/kg tiw and 4.3 mg/kg qd, by day 14) was “completely regressed the tumor”. For the same compound, the “Body Weight” value (1.3 mpk qd, day 0) was 25.1 ± 0.3 g, the “Body Weight (% Change)” value (1.3 mpk qd, day 0) was 0.0% and the Tumor Volume (1.3 mpk qd, day 0) was 161 ± 22 mm^3. For the same compound, the “Body Weight” value (1.3 mpk qd, day 2) was 24.6 ± 0.6 g, the “Body Weight (% Change)” value (1.3 mpk qd, day 2) was −2.0 ± 2.6% and the Tumor Volume (1.3 mpk qd, day 2) was 204 ± 30 mm^3. For the same compound, the “Body Weight” value (1.3 mpk qd, day 4) was 24.9 ± 0.5 g, the “Body Weight (% Change)” value (1.3 mpk qd, day 4) was −0.8 ± 1.7% and the Tumor Volume (1.3 mpk qd, day 4) was 243 ± 36 mm^3. The “Body Weight” value (1.3 mpk qd, day 7) was 24.2 ± 0.5 g, the “Body Weight (% Change)” value (1.3 mpk qd, day 7) was −3.5 ± 1.3% and the Tumor Volume (1.3 mpk qd, day 7) was 278 ± 35 mm^3. For the same compound, the “Body Weight” value (1.3 mpk qd, day 9) was 24.5 ± 0.5 g, the “Body Weight (% Change)” value (1.3 mpk qd, day 9) was −2.2 ± 2.0% and the Tumor Volume (1.3 mpk qd, day 9) was 326 ± 46 mm^3. For the same compound, the “Body Weight” value (1.3 mpk qd, day 11) was 25.4 ± 0.4 g, the “Body Weight (% Change)” value (1.3 mpk qd, day 11) was 1.3 ± 1.4% and the Tumor Volume (1.3 mpk qd, day 11) was 370 ± 40 mm^3. The “Body Weight” value (1.3 mpk qd, day 14) was 25.2 ± 0.8 g, the “Body Weight (% Change)” value (1.3 mpk qd, day 14) was 0.5 ± 3.2% and the “T/C (%)” value (1.3 mpk qd, day 14) was 38%. The “TGI (%)” value (1.3 mpk qd, day 14) was 71%, the Tumor Volume (1.3 mpk qd, day 14) was 473 ± 44 mm^3 and the “Tumor Size (mm^3)” value (1.3 mpk qd, day 14) was 473 ± 44 mm^3. For the same compound, the “Body Weight” value (3 mpk tiw, day 0) was 24.0 ± 0.2 g, the “Body Weight (% Change)” value (3 mpk tiw, day 0) was 0.0% and the Tumor Volume (3 mpk tiw, day 0) was 165 ± 13 mm^3. For the same compound, the “Body Weight” value (3 mpk tiw, day 2) was 23.8 ± 0.3 g, the “Body Weight (% Change)” value (3 mpk tiw, day 2) was −1.0 ± 0.9% and the Tumor Volume (3 mpk tiw, day 2) was 251 ± 18 mm^3. The “Body Weight” value (3 mpk tiw, day 4) was 24.1 ± 0.3 g, the “Body Weight (% Change)” value (3 mpk tiw, day 4) was 0.3 ± 0.7% and the Tumor Volume (3 mpk tiw, day 4) was 381 ± 26 mm^3. The “Body Weight” value (3 mpk tiw, day 7) was 24.5 ± 0.2 g, the “Body Weight (% Change)” value (3 mpk tiw, day 7) was 2.0 ± 0.2% and the Tumor Volume (3 mpk tiw, day 7) was 501 ± 41 mm^3. The “Body Weight” value (3 mpk tiw, day 9) was 24.7 ± 0.2 g, the “Body Weight (% Change)” value (3 mpk tiw, day 9) was 2.8 ± 0.6% and the Tumor Volume (3 mpk tiw, day 9) was 525 ± 40 mm^3. The “Body Weight” value (3 mpk tiw, day 11) was 24.7 ± 0.2 g, the “Body Weight (% Change)” value (3 mpk tiw, day 11) was 3.1 ± 1.0% and the Tumor Volume (3 mpk tiw, day 11) was 540 ± 46 mm^3. For the same compound, the “Body Weight” value (3 mpk tiw, day 14) was 25.1 ± 0.2 g, the “Body Weight (% Change)” value (3 mpk tiw, day 14) was 4.6 ± 1.5% and the “T/C (%)” value (3 mpk tiw, day 14) was 52%. For the same compound, the “TGI (%)” value (3 mpk tiw, day 14) was 56%, the Tumor Volume (3 mpk tiw, day 14) was 644 ± 56 mm^3 and the “Tumor Size (mm^3)” value (3 mpk tiw, day 14) was 644 ± 56 mm^3. For the same compound, the “Body Weight” value (4.3 mpk qd, day 0) was 24.8 ± 0.4 g, the “Body Weight (% Change)” value (4.3 mpk qd, day 0) was 0.0% and the Tumor Volume (4.3 mpk qd, day 0) was 165 ± 18 mm^3. The “Body Weight” value (4.3 mpk qd, day 2) was 23.9 ± 0.5 g, the “Body Weight (% Change)” value (4.3 mpk qd, day 2) was −3.4 ± 1.1% and the Tumor Volume (4.3 mpk qd, day 2) was 209 ± 7 mm^3. For the same compound, the “Body Weight” value (4.3 mpk qd, day 4) was 23.6 ± 0.8 g, the “Body Weight (% Change)” value (4.3 mpk qd, day 4) was −4.6 ± 2.0% and the Tumor Volume (4.3 mpk qd, day 4) was 154 ± 10 mm^3. For the same compound, the “Body Weight” value (4.3 mpk qd, day 7) was 23.7 ± 0.5 g, the “Body Weight (% Change)” value (4.3 mpk qd, day 7) was −4.2 ± 1.3% and the Tumor Volume (4.3 mpk qd, day 7) was 81 ± 3 mm^3. The “Body Weight” value (4.3 mpk qd, day 9) was 23.5 ± 0.5 g, the “Body Weight (% Change)” value (4.3 mpk qd, day 9) was −5.2 ± 1.2% and the Tumor Volume (4.3 mpk qd, day 9) was 39 ± 3 mm^3. For the same compound, the “Body Weight” value (4.3 mpk qd, day 11) was 24.7 ± 0.7 g, the “Body Weight (% Change)” value (4.3 mpk qd, day 11) was −0.4 ± 1.7% and the Tumor Volume (4.3 mpk qd, day 11) was 6 ± 3 mm^3. For the same compound, the “Body Weight” value (4.3 mpk qd, day 14) was 23.5 ± 0.6 g, the “Body Weight (% Change)” value (4.3 mpk qd, day 14) was −5.1 ± 1.9% and the “T/C (%)” value (4.3 mpk qd, day 14) was 0%. The “TGI (%)” value (4.3 mpk qd, day 14) was 115%, the Tumor Volume (4.3 mpk qd, day 14) was 0 ± 0 mm^3 and the “Tumor Size (mm^3)” value (4.3 mpk qd, day 14) was 0 ± 0 mm^3. The “Body Weight” value (4.5 mpk biw, day 0) was 24.0 ± 0.6 g, the “Body Weight (% Change)” value (4.5 mpk biw, day 0) was 0.0% and the Tumor Volume (4.5 mpk biw, day 0) was 161 ± 21 mm^3. The “Body Weight” value (4.5 mpk biw, day 2) was 23.4 ± 0.6 g, the “Body Weight (% Change)” value (4.5 mpk biw, day 2) was −2.2 ± 1.0% and the Tumor Volume (4.5 mpk biw, day 2) was 239 ± 15 mm^3. The “Body Weight” value (4.5 mpk biw, day 4) was 23.7 ± 0.6 g, the “Body Weight (% Change)” value (4.5 mpk biw, day 4) was −1.3 ± 0.7% and the Tumor Volume (4.5 mpk biw, day 4) was 276 ± 28 mm^3. For the same compound, the “Body Weight” value (4.5 mpk biw, day 7) was 24.8 ± 0.7 g, the “Body Weight (% Change)” value (4.5 mpk biw, day 7) was 3.3 ± 0.9% and the Tumor Volume (4.5 mpk biw, day 7) was 296 ± 29 mm^3. The “Body Weight” value (4.5 mpk biw, day 9) was 24.2 ± 0.6 g, the “Body Weight (% Change)” value (4.5 mpk biw, day 9) was 1.0 ± 0.7% and the Tumor Volume (4.5 mpk biw, day 9) was 285 ± 19 mm^3. The “Body Weight” value (4.5 mpk biw, day 11) was 24.5 ± 0.7 g, the “Body Weight (% Change)” value (4.5 mpk biw, day 11) was 2.4 ± 1.1% and the Tumor Volume (4.5 mpk biw, day 11) was 254 ± 46 mm^3. For the same compound, the “Body Weight” value (4.5 mpk biw, day 14) was 25.1 ± 0.6 g, the “Body Weight (% Change)” value (4.5 mpk biw, day 14) was 5.0 ± 0.7% and the “T/C (%)” value (4.5 mpk biw, day 14) was 23%. For the same compound, the “TGI (%)” value (4.5 mpk biw, day 14) was 89%, the Tumor Volume (4.5 mpk biw, day 14) was 285 ± 49 mm^3 and the “Tumor Size (mm^3)” value (4.5 mpk biw, day 14) was 285 ± 49 mm^3. For the same compound, the “Body Weight” value (4.5 mpk biw, day 16) was 24.7 ± 0.8 g, the “Body Weight (% Change)” value (4.5 mpk biw, day 16) was 3.1 ± 1.5% and the Tumor Volume (4.5 mpk biw, day 16) was 331 ± 60 mm^3. The “Body Weight” value (4.5 mpk biw, day 18) was 25.2 ± 0.8 g, the “Body Weight (% Change)” value (4.5 mpk biw, day 18) was 5.3 ± 1.6% and the Tumor Volume (4.5 mpk biw, day 18) was 409 ± 97 mm^3. The “Body Weight” value (4.5 mpk biw, day 21) was 25.2 ± 0.7 g and the “Body Weight (% Change)” value (4.5 mpk biw, day 21) was 5.2 ± 1.4%.
